Results: paper doi:10.1101/473132 (bioRxiv, 2018)

How the values were obtained:
[1] = biological target: histone H2B, within the H3Kc9me3 mononucleosome (X. laevis, UniProt P02281 2-126); test: cross-linking
[2] = biological target: histone H4, within the H3Kc9me3 mononucleosome (X. laevis, UniProt P62799 2-103); test: cross-linking

- binding result [1]: binds
- binding result [2]: binds
B1: Swi6 (S. pombe HP1 protein) (natural protein)
chain: MKKGGVRSYRRSSTSKRSVIDDDSEPELPSMTKEAIASHKADSGSSDNEVESDHESKSSSKKLKENAKEEEGGEEEEEDEYVVEKVLKHRMARKGGGYEYLLKWEGYDDPSDNTWSSEADCSGCKQLIEAYWNEHGGRPEPSKRKRTARPKKPEAKEPSPKSRKTDEDKHDKDSNEKIEDVNEKTIKFADKSQEEFNENGPPSGQPNGHIESDNESKSPSQKESNESEDIQIAETPSNVTPKKKPSPEVPKLPDNRELTVKQVENYDSWEDLVSSIDTIERKDDGTLEIYLTWKNGAISHHPSTITNKKCPQKMLQFYESHLTFRENE
